B1: General transcription factor IIH subunit 4 (Homo sapiens), Q92759 (parent)
chain: MESTPSRGLNRVHLQCRNLQEFLGGLSPGVLDRLYGHPATCLAVFRELPSLAKNWVMRMLFLEQPLPQAAVALWVKKEFSKAQEESTGLLSGLRIWHTQLLPGGLQGLILNPIFRQNLRIALLGGGKAWSDDTSQLGPDKHARDVPSLDKYAEERWEVVLHFMVGSPSAAVSQDLAQLLSQAGLMKSTEPGEPPCITSAGFQFLLLDTPAQLWYFMLQYLQTAQSRGMDLVEILSFLFQLSFSTLGKDYSVEGMSDSLLNFLQHLREFGLVFQRKRKSRRYYPTRLAINLSSGVSGAGGTVHQPGFIVVETNYRLYAYTESELQIALIALFSEMLYRFPNMVVAQVTRESVQQAIASGITAQQIIHFLRTRAHPVMLKQTPVLPPTITDQIRLWELERDRLRFTEGVLYNQFLSQVDFELLLAHARELGVLVFENSAKRLMVVTPAGHSDVKRFWKRQKHSS
partner: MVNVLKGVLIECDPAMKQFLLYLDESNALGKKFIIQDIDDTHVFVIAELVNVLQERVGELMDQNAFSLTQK

Variants of: B1
Settings: with tf2h5_human GTF2H5, Q6ZYL4

effect of a mutation on the interaction	Variant
decreasing interaction	K438A;R439A

From IntAct's records for PubMed 19172752
